According to patent publication US20240270846A1 (published 2024):

Each binder was assayed against T1, CD3 epsilon homodimer protein (UniProt P07766 23-126) (assay: SPR (Biacore T200), CD3e homodimer on CM4 chip, antibody as analyte; KD ratio vs unaltered GLS3000;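 also: CD3 epsilon homodimer amine-coupled to the sensor surface, antibodies injected as analyte at 25 °C with HBS-EP+ running buffer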).
T1 construct: also called CD3 (CD3 epsilon)
T1 sequence (P07766 23-126): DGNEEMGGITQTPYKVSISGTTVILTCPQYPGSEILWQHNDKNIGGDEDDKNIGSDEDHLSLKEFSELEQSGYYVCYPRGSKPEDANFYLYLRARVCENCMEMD

Row | Binder | KD ratio to GLS3000
1 | CE115HA000/GLS3000 F55M one-arm antibody (antibody, human IgG1, kappa, L234A L235A, N297A, name in Kabat numbering, one-arm IgG1) heavy: QVQLVESGGGVVQPGRSLRLSCAASGFTFSNAWMHWVRQAPGKGLEWVAQIKAKSNNYATYYAESVKGRFTISRDDSKNSLYLQMNSLKTEDTAVYYCRYVHYGAYYGVDAWGQGTTVTVSSASTKGPSVFPLAPSSKSTSGGTAALGCLVKDYFPEPVTVSWNSGALTSGVHTFPAVLQSSGLYSLSSVVTVPSSSLGTQTYICNVNHKPSNTKVDKKVEPKSCDKTHTCPPCPAPEAAGGPSVFLFPPKPKDTLMISRTPEVTCVVVDVSHEDPEVKFNWYVDGVEVHNAKTKPREEQYASTYRVVSVLTVLHQDWLNGKEYKCKVSNKALPAPIEKTISKAKGQPREPQVYTLPPSRCELTKNQVSLSCAVKGFYPSDIAVEWESNGQPENNYKTTPPVLDSDGSFFLVSKLTVDKSRWQQGNVFSCSVMHEALHNHYTQKSLSLSPDYKDDDDK EPKSSDKTHTCPPCPAPELLGGPSVFLFPPKPKDTLMISRTPEVTCVVVDVSHEDPEVKFNWYVDGVEVHNAKTKPREEQYNSTYRVVSVLTVLHQDWLNGKEYKCKVSNKALPAPIEKTISKAKGQPREPQVCTLPPSRDELTKNQVSLWCLVKGFYPSDIAVEWESNGQPENNYKTTPPVLDSDGSFFLYSKLTVDKSRWQQGNVFSCSVMHEALHNRYTQKSLSLSP light: DIVMTQSPLSLPVTPGEPASISCRSSQSLVHSNRNTYLHWYQQKPGQAPRLLIYKVSNRMSGVPDRFSGSGSGTDFTLKISRVEAEDVGVYYCGQGTQVPYTFGQGTKLEIKRTVAAPSVFIFPPSDEQLKSGTASVVCLLNNFYPREAKVQWKVDNALQSGNSQESVTEQDSKDSTYSLSSTLTLSKADYEKHKVYACEVTHQGLSSPVTKSFNRGEC | 1.29 ratio
2 | CE115HA000/GLS3000 F55Q one-arm antibody (antibody, human IgG1, kappa, L234A L235A, N297A, name in Kabat numbering, one-arm IgG1) heavy: QVQLVESGGGVVQPGRSLRLSCAASGFTFSNAWMHWVRQAPGKGLEWVAQIKAKSNNYATYYAESVKGRFTISRDDSKNSLYLQMNSLKTEDTAVYYCRYVHYGAYYGVDAWGQGTTVTVSSASTKGPSVFPLAPSSKSTSGGTAALGCLVKDYFPEPVTVSWNSGALTSGVHTFPAVLQSSGLYSLSSVVTVPSSSLGTQTYICNVNHKPSNTKVDKKVEPKSCDKTHTCPPCPAPEAAGGPSVFLFPPKPKDTLMISRTPEVTCVVVDVSHEDPEVKFNWYVDGVEVHNAKTKPREEQYASTYRVVSVLTVLHQDWLNGKEYKCKVSNKALPAPIEKTISKAKGQPREPQVYTLPPSRCELTKNQVSLSCAVKGFYPSDIAVEWESNGQPENNYKTTPPVLDSDGSFFLVSKLTVDKSRWQQGNVFSCSVMHEALHNHYTQKSLSLSPDYKDDDDK EPKSSDKTHTCPPCPAPELLGGPSVFLFPPKPKDTLMISRTPEVTCVVVDVSHEDPEVKFNWYVDGVEVHNAKTKPREEQYNSTYRVVSVLTVLHQDWLNGKEYKCKVSNKALPAPIEKTISKAKGQPREPQVCTLPPSRDELTKNQVSLWCLVKGFYPSDIAVEWESNGQPENNYKTTPPVLDSDGSFFLYSKLTVDKSRWQQGNVFSCSVMHEALHNRYTQKSLSLSP light: DIVMTQSPLSLPVTPGEPASISCRSSQSLVHSNRNTYLHWYQQKPGQAPRLLIYKVSNRQSGVPDRFSGSGSGTDFTLKISRVEAEDVGVYYCGQGTQVPYTFGQGTKLEIKRTVAAPSVFIFPPSDEQLKSGTASVVCLLNNFYPREAKVQWKVDNALQSGNSQESVTEQDSKDSTYSLSSTLTLSKADYEKHKVYACEVTHQGLSSPVTKSFNRGEC | 1.09 ratio
3 | CE115HA000/GLS3000 F55P one-arm antibody (antibody, human IgG1, kappa, L234A L235A, N297A, name in Kabat numbering, one-arm IgG1) heavy: QVQLVESGGGVVQPGRSLRLSCAASGFTFSNAWMHWVRQAPGKGLEWVAQIKAKSNNYATYYAESVKGRFTISRDDSKNSLYLQMNSLKTEDTAVYYCRYVHYGAYYGVDAWGQGTTVTVSSASTKGPSVFPLAPSSKSTSGGTAALGCLVKDYFPEPVTVSWNSGALTSGVHTFPAVLQSSGLYSLSSVVTVPSSSLGTQTYICNVNHKPSNTKVDKKVEPKSCDKTHTCPPCPAPEAAGGPSVFLFPPKPKDTLMISRTPEVTCVVVDVSHEDPEVKFNWYVDGVEVHNAKTKPREEQYASTYRVVSVLTVLHQDWLNGKEYKCKVSNKALPAPIEKTISKAKGQPREPQVYTLPPSRCELTKNQVSLSCAVKGFYPSDIAVEWESNGQPENNYKTTPPVLDSDGSFFLVSKLTVDKSRWQQGNVFSCSVMHEALHNHYTQKSLSLSPDYKDDDDK EPKSSDKTHTCPPCPAPELLGGPSVFLFPPKPKDTLMISRTPEVTCVVVDVSHEDPEVKFNWYVDGVEVHNAKTKPREEQYNSTYRVVSVLTVLHQDWLNGKEYKCKVSNKALPAPIEKTISKAKGQPREPQVCTLPPSRDELTKNQVSLWCLVKGFYPSDIAVEWESNGQPENNYKTTPPVLDSDGSFFLYSKLTVDKSRWQQGNVFSCSVMHEALHNRYTQKSLSLSP light: DIVMTQSPLSLPVTPGEPASISCRSSQSLVHSNRNTYLHWYQQKPGQAPRLLIYKVSNRPSGVPDRFSGSGSGTDFTLKISRVEAEDVGVYYCGQGTQVPYTFGQGTKLEIKRTVAAPSVFIFPPSDEQLKSGTASVVCLLNNFYPREAKVQWKVDNALQSGNSQESVTEQDSKDSTYSLSSTLTLSKADYEKHKVYACEVTHQGLSSPVTKSFNRGEC | 1.15 ratio
4 | CE115HA000/GLS3000 F55N one-arm antibody (antibody, human IgG1, kappa, L234A L235A, N297A, name in Kabat numbering, one-arm IgG1) heavy: QVQLVESGGGVVQPGRSLRLSCAASGFTFSNAWMHWVRQAPGKGLEWVAQIKAKSNNYATYYAESVKGRFTISRDDSKNSLYLQMNSLKTEDTAVYYCRYVHYGAYYGVDAWGQGTTVTVSSASTKGPSVFPLAPSSKSTSGGTAALGCLVKDYFPEPVTVSWNSGALTSGVHTFPAVLQSSGLYSLSSVVTVPSSSLGTQTYICNVNHKPSNTKVDKKVEPKSCDKTHTCPPCPAPEAAGGPSVFLFPPKPKDTLMISRTPEVTCVVVDVSHEDPEVKFNWYVDGVEVHNAKTKPREEQYASTYRVVSVLTVLHQDWLNGKEYKCKVSNKALPAPIEKTISKAKGQPREPQVYTLPPSRCELTKNQVSLSCAVKGFYPSDIAVEWESNGQPENNYKTTPPVLDSDGSFFLVSKLTVDKSRWQQGNVFSCSVMHEALHNHYTQKSLSLSPDYKDDDDK EPKSSDKTHTCPPCPAPELLGGPSVFLFPPKPKDTLMISRTPEVTCVVVDVSHEDPEVKFNWYVDGVEVHNAKTKPREEQYNSTYRVVSVLTVLHQDWLNGKEYKCKVSNKALPAPIEKTISKAKGQPREPQVCTLPPSRDELTKNQVSLWCLVKGFYPSDIAVEWESNGQPENNYKTTPPVLDSDGSFFLYSKLTVDKSRWQQGNVFSCSVMHEALHNRYTQKSLSLSP light: DIVMTQSPLSLPVTPGEPASISCRSSQSLVHSNRNTYLHWYQQKPGQAPRLLIYKVSNRNSGVPDRFSGSGSGTDFTLKISRVEAEDVGVYYCGQGTQVPYTFGQGTKLEIKRTVAAPSVFIFPPSDEQLKSGTASVVCLLNNFYPREAKVQWKVDNALQSGNSQESVTEQDSKDSTYSLSSTLTLSKADYEKHKVYACEVTHQGLSSPVTKSFNRGEC | 0.91 ratio
